The target of experiment [1] is CH505 T/F UFO Env trimer (HIV-1 (subject CH505)). The experiment can be described thus: SEC; lectin-purified Env proteins separated on a Superdex 200 Increase 10/300 GL column.
The target is the same in experiment [2]. Kind of experiment: native gel or EMSA; blue native gel (NativePAGE 3-12% Bis-Tris) of the fractions collected from SEC.

Experimental findings from paper PMC10454455 are described below.

For the substance CH505 T/F UFO Env trimer, the stoichiometry N in experiment [1] and in experiment [2] was 3 in each case.
